Blank lines part the entries; values can stand above or below the substance they belong to.
Key:
[1] = target: ECFP tagged myosin Va peptide containing a single IQ domain (IQ6) (mouse) (UniProt Q99104); assay: FRET or BRET; FRET 2-hybrid in live HEK293 cells co-expressing a CFP-tagged and a YFP-tagged partner; 3^3-FRET (EA) and E-FRET (ED) efficiencies from single cells, room temperature; stoichiometry from the ratio EA,max/ED,max
[2] = target: ECFP fused myosin Va peptide containing three tandem IQ domains (IQ4-6) (mouse) (UniProt Q99104); assay: as above
[3] = target: ECFP fused myosin Va peptide containing five tandem IQ domains (IQ2-6) (mouse) (UniProt Q99104); assay: as above
[4] = target: EYFP-tagged myosin Va peptide containing two IQ domains (IQ5-6) (mouse) (UniProt Q99104); assay: as above
[5] = target: EYFP-tagged myosin Va peptide containing three tandem IQ domains (IQ4-6) (mouse) (UniProt Q99104); assay: as above
[6] = target: EYFP-fused myosin Va peptide containing four tandem IQ domains (IQ3-6) (mouse) (UniProt Q99104); assay: as above
[7] = target: YFP-fused myosin Va peptide containing five tandem IQ motifs (IQ2-6) (mouse) (UniProt Q99104); assay: as above
[8] = target: EYFP tagged myosin Va peptide containing a single IQ domain (IQ6) (mouse) (UniProt Q99104); assay: FRET or BRET; FRET 2-hybrid (3^3-FRET and E-FRET) in single live HEK293 cells, room temperature, basal (resting) Ca2+: Tyrode's bath with 2 mM Ca2+; relative (effective) dissociation constants Kd,EFF; stoichiometry ratio ν = EA,max/ED,max
[9] = target: EYFP tagged myosin Va three tandem IQ domain peptide (IQ4-6) (mouse) (UniProt Q99104); assay: as above
[10] = target: EYFP tagged myosin Va four tandem IQ domain peptide (IQ3-6) (mouse) (UniProt Q99104); assay: as above
[11] = target: EYFP-tagged full length myosin Va neck domain peptide containing six IQ domains (IQ1-6) (mouse) (UniProt Q99104); assay: as above
[12] = target: EYFP tagged myosin Va two tandem IQ domain peptide (IQ5-6) (mouse) (UniProt Q99104); assay: as above
[13] = target: EYFP tagged myosin Va five tandem IQ domain truncation (IQ2-6) (mouse) (UniProt Q99104); assay: as above
[14] = target: NaV1.4 with EYFP fused to its carboxy-terminus (rat) (UniProt P15390); assay: as above
[15] = target: CaV1.2 holochannel tagged with EYFP on its carboxy-terminus, co-expressed with β2a and α2δ subunits (UniProt P15381); assay: as above
[16] = target: CaV1.2 holochannel tagged with EYFP on its carboxy-terminus, co-expressed with β2a and α2δ subunits (UniProt P15381); assay: FRET or BRET; FRET 2-hybrid (3^3-FRET and E-FRET) in single live HEK293 cells, room temperature, elevated cytosolic Ca2+: Tyrode's bath with 10 mM Ca2+ and 4 μM ionomycin; relative (effective) dissociation constants Kd,EFF; stoichiometry ratio ν = EA,max/ED,max

Sequence of CaV1.2 holochannel tagged with EYFP on its carboxy-terminus, co-expressed with β2a and α2δ subunits (P15381 whole entry, stated change not applied, chain 1 of 3, other chains not shown): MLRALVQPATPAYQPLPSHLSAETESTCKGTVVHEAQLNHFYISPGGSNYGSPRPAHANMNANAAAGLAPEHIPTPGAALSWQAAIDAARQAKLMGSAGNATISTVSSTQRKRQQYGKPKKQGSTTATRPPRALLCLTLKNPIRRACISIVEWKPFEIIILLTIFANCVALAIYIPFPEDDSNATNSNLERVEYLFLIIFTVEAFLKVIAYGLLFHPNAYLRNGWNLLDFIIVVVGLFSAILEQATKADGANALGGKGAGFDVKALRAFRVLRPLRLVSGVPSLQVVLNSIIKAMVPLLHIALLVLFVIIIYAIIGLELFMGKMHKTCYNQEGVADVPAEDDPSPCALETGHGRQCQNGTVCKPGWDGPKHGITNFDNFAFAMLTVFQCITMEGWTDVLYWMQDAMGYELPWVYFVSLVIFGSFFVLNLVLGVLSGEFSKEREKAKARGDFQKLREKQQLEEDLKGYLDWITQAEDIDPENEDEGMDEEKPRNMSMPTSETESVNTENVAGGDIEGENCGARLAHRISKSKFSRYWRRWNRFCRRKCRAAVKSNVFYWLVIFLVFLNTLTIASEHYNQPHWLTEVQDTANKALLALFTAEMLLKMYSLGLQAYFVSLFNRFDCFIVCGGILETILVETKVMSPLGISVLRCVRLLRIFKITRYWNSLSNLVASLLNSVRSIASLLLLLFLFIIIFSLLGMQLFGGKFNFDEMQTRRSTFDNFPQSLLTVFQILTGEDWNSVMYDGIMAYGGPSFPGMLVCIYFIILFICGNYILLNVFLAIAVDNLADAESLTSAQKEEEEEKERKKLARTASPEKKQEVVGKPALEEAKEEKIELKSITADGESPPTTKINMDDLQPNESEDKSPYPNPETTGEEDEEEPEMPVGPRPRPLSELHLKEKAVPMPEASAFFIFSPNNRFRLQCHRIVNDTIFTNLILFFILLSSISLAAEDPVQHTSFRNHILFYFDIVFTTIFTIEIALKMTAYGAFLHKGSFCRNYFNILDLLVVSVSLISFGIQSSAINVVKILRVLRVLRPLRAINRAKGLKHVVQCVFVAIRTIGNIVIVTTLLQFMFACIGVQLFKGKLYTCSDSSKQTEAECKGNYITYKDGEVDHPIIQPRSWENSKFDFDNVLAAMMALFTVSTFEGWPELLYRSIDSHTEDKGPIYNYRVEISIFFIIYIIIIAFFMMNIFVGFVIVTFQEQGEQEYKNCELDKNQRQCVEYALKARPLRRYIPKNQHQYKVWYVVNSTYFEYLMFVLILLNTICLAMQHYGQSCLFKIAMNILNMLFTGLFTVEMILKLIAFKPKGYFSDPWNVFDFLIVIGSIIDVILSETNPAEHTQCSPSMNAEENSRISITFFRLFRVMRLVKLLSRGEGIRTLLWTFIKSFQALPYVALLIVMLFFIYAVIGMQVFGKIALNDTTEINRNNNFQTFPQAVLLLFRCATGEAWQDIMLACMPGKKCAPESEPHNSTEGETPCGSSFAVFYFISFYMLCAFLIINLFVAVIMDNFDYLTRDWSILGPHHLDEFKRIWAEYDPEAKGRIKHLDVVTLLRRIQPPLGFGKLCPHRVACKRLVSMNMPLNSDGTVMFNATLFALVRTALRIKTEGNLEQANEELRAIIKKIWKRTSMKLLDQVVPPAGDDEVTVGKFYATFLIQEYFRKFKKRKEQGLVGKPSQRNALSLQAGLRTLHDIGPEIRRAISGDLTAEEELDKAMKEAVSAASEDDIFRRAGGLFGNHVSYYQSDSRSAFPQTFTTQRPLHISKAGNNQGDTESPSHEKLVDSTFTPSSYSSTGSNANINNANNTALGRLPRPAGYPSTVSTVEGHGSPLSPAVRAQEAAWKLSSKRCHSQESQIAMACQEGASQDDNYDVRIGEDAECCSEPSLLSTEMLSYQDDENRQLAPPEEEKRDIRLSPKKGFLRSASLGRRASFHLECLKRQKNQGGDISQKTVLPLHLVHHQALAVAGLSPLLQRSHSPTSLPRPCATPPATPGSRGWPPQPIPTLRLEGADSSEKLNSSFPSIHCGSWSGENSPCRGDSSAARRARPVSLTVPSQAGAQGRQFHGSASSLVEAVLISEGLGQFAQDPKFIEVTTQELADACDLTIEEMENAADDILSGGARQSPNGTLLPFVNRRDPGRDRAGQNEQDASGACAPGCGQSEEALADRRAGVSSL
Sequence of CaV1.2 holochannel tagged with EYFP on its carboxy-terminus, co-expressed with β2a and α2δ subunits (P54290 25-1091, stated change not applied, chain 3 of 3, other chains not shown, further chain): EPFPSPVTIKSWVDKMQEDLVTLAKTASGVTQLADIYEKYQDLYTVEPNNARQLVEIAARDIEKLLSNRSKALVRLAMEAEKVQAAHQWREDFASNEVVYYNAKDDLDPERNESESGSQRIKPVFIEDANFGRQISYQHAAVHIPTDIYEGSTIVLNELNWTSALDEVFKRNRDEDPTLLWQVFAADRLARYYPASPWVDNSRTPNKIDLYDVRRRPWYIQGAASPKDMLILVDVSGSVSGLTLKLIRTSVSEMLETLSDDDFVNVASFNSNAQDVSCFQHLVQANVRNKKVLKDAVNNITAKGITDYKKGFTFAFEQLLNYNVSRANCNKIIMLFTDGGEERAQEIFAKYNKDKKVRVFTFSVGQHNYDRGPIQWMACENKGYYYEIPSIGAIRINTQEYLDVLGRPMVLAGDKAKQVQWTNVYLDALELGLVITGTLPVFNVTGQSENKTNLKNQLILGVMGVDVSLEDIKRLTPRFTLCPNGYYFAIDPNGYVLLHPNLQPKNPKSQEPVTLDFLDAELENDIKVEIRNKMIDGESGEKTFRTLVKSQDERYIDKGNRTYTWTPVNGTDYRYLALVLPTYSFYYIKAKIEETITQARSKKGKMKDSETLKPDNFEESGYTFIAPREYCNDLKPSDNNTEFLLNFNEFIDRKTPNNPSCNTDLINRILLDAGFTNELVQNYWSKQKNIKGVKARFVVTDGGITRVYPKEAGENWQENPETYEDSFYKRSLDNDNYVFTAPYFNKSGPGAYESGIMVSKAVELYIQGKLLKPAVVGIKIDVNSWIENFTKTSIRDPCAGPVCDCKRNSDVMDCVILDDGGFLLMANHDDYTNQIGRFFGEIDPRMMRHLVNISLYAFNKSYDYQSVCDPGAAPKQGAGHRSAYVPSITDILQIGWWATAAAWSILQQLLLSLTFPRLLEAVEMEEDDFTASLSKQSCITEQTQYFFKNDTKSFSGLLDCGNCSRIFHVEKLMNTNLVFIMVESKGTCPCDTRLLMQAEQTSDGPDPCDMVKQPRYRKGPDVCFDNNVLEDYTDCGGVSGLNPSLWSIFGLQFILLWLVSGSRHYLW
Sequence of EYFP-fused myosin Va peptide containing four tandem IQ domains (IQ3-6) (mouse) (Q99104 814-920): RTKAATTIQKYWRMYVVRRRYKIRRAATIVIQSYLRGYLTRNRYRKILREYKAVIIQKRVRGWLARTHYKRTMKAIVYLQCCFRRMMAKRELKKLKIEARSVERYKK
Sequence of EYFP tagged myosin Va four tandem IQ domain peptide (IQ3-6) (mouse) (Q99104 814-920): as above
Sequence of EYFP tagged myosin Va five tandem IQ domain truncation (IQ2-6) (mouse) (Q99104 789-920): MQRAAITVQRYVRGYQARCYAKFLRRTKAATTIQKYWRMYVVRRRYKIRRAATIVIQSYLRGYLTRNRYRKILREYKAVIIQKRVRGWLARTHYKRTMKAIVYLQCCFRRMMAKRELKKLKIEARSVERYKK
Sequence of ECFP fused myosin Va peptide containing five tandem IQ domains (IQ2-6) (mouse) (Q99104 789-920): as above
Sequence of YFP-fused myosin Va peptide containing five tandem IQ motifs (IQ2-6) (mouse) (Q99104 789-920): as above
Sequence of EYFP-tagged myosin Va peptide containing three tandem IQ domains (IQ4-6) (mouse) (Q99104 837-920): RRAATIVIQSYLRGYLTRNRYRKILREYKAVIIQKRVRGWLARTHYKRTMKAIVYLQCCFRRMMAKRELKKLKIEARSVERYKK
Sequence of EYFP tagged myosin Va three tandem IQ domain peptide (IQ4-6) (mouse) (Q99104 837-920): as above
Sequence of ECFP fused myosin Va peptide containing three tandem IQ domains (IQ4-6) (mouse) (Q99104 837-920): as above
Sequence of EYFP-tagged full length myosin Va neck domain peptide containing six IQ domains (IQ1-6) (mouse) (Q99104 766-920): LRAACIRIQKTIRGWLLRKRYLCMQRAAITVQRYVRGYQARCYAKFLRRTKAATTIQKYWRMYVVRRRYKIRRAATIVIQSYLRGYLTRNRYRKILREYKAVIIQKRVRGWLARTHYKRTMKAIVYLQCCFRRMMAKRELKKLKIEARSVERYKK
Sequence of EYFP tagged myosin Va peptide containing a single IQ domain (IQ6) (mouse) (Q99104 885-920): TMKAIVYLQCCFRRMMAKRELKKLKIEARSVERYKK
Sequence of ECFP tagged myosin Va peptide containing a single IQ domain (IQ6) (mouse) (Q99104 885-920): as above
Sequence of EYFP tagged myosin Va two tandem IQ domain peptide (IQ5-6) (mouse) (Q99104 862-920): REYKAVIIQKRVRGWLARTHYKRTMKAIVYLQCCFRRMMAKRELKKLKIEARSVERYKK
Sequence of EYFP-tagged myosin Va peptide containing two IQ domains (IQ5-6) (mouse) (Q99104 862-920): as above

stoichiometry N [1]: 1 | stoichiometry N [2]: 3 | stoichiometry N [3]: 5
Substance: EYFP-tagged calmodulin (from UniProt P0DP23 1-149) (natural protein)

stoichiometry N [4]: 2 | stoichiometry N [5]: 3 | stoichiometry N [6]: 4 | stoichiometry N [7]: 5
Substance: ECFP-tagged calmodulin (from UniProt P0DP23 1-149) (natural protein)

stoichiometry N (CaM per peptide (donors per acceptor)) [8]: 0.97 | stoichiometry N (CaM per peptide (donors per acceptor)) [9]: 3 | stoichiometry N (CaM per peptide (donors per acceptor)) [10]: 4 | stoichiometry N (CaM per peptide (donors per acceptor)) [11]: 5.91 | stoichiometry N (CaM per peptide (donors per acceptor)) [12]: 2 | stoichiometry N (CaM per peptide (donors per acceptor)) [13]: 5 | stoichiometry N (CaM per channel (donors per acceptor)) [14]: 1.14
Substance: ECFP-tagged calmodulin (CaM) (from UniProt P0DP23 1-149) (natural protein)
Kd [15]: 115 nM | stoichiometry N (CaM per channel (donors per acceptor)) [15]: 1.1 | stoichiometry N (CaM per channel (donors per acceptor)) [16]: 1.94
